Laboratory results: paper PMC8440562, “MAD2L2 dimerization and TRIP13 control shieldin activity in DNA repair” (Nature Communications, 2021)

How the values were obtained:
MAD2L2^1xMut (E. coli) = target: T1, MAD2L2^1xMut (E. coli) (human, UniProt Q9UI95 1-211, R124A); assay: pull-down; 0.25 uM MBP-SHLD3^28-83 pre-adsorbed on amylose beads, eightfold molar excess of MAD2L2 variant, time course at 4 C in buffer B (10 mM HEPES pH 7.5, 0.15 M NaCl, 5% glycerol, 0.5 mM TCEP); Coomassie SDS-PAGE; details: both partners purified
T1 construct: MAD2L2 (REV7), human, with R124A; also called MAD2L2^R124A; source: E. coli Rosetta, purified (metal chelating column, PreScission cleavage, SEC); not shown: GST/hexahistidine-MBP fusion-tag, N-terminal, cleaved
T1 sequence (Q9UI95 whole entry R124A, the tested form may be a part): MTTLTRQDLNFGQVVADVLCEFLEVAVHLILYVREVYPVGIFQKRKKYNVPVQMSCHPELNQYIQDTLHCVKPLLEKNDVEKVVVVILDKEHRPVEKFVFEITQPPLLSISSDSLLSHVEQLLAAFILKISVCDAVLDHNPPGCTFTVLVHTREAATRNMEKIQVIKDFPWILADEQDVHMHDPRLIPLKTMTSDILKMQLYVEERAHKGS

MAD2L2^3xMut (E. coli) = target: T2, MAD2L2^3xMut (E. coli) (human, UniProt Q9UI95 1-211, K44A | R124A | A135D); assay: as above; details: both partners purified
T2 construct: MAD2L2 (REV7), human, with K44A, R124A and A135D; also called MAD2L2^K44A/R124A/A135D; source: E. coli Rosetta, purified (metal chelating column, PreScission cleavage, SEC); not shown: GST/hexahistidine-MBP fusion-tag, N-terminal, cleaved
T2 sequence (Q9UI95 whole entry K44A/R124A/A135D, the tested form may be a part): as the sequence (Q9UI95 whole entry R124A, the tested form may be a part) above, with K44A, A135D counted along it

MAD2L2^WT (E. coli) = target: T3, MAD2L2^WT (E. coli) (human, UniProt Q9UI95 1-211); assay: as above; details: both partners purified
T3 construct: MAD2L2 (REV7), human; source: E. coli Rosetta, purified (metal chelating column, PreScission cleavage, SEC); not shown: GST/hexahistidine-MBP fusion-tag, N-terminal, cleaved
T3 sequence (Q9UI95 whole entry, the tested form may be a part): as the sequence (Q9UI95 whole entry R124A, the tested form may be a part) above, with A124R counted along it

[1] = target: the molecule itself; assay: SEC; Superdex-200 in buffer C (25 mM Tris pH 8, 0.3 M NaCl, 10% glycerol, 0.5 mM TCEP, 10 mM MgCl2) + 0.1 mM ATP; proteins incubated 2 h on ice with 2 mM ATP before the run; equimolar in Fig. 3f

B1: MBP-SHLD3^28-83 (domain or fragment, human, UniProt Q6ZNX1 28-83, looked up)
chain: QDFPTRPLSRFIPWFPYDGSKLPLRPKRSPPVISEEAAEDVKQYLTISEHDAKSHS
notes: SHLD3, human, residues 28-83; contains only the second RBM; also called SHLD3^28-83 peptide; SHLD3-fragment; source: E. coli Rosetta, purified (metal chelating column, SEC); not shown: hexahistidine-MBP, N-terminal, kept
- binding result (MAD2L2^1xMut (E. coli)): binds
- binding result (MAD2L2^3xMut (E. coli)): binds
- binding result (MAD2L2^WT (E. coli)): binds

B2: His6-EGFP-TRIP13^E253Q (enzyme, human, UniProt Q15645 1-432, looked up)
chain: MDEAVGDLKQALPCVAESPTVHVEVHQRGSSTAKKEDINLSVRKLLNRHNIVFGDYTWTEFDEPFLTRNVQSVSIIDTELKVKDSQPIDLSACTVALHIFQLNEDGPSSENLEEETENIIAANHWVLPAAEFHGLWDSLVYDVEVKSHLLDYVMTTLLFSDKNVNSNLITWNRVVLLHGPPGTGKTSLCKALAQKLTIRLSSRYRYGQLIEINSHSLFSKWFSESGKLVTKMFQKIQDLIDDKDALVFVLIDQVESLTAARNACRAGTEPSDAIRVVNAVLTQIDQIKRHSNVVILTTSNITEKIDVAFVDRADIKQYIGPPSAAAIFKIYLSCLEELMKCQIIYPRQQLLTLRELEMIGFIENNVSKLSLLLNDISRKSEGLSGRVLRKLPFLAHALYVQAPTVTIEGFLQALSLAVDKQFEERKKLAAYI
notes: TRIP13, human, with E253Q; printed mass of GFP-TRIP13 75.5 kDa; source: insect cells (Hi5, baculovirus, biGBac), purified
- stoichiometry N [1]: 6

B3: TRIP13^E253Q (48.5 kDa form, Fig. 3f) (enzyme, human, UniProt Q15645 1-432, looked up)
chain: B2 chain
notes: TRIP13, human, with E253Q; printed mass 48.5 kDa (291 kDa for hexamer); The printed mass fits TRIP13 without the EGFP fusion; source: insect cells (Hi5, baculovirus, biGBac), purified
- stoichiometry N [1]: 6
